{"source": "patent US20250057918A1", "about": "(YALE UNIVERSITY, published 2025)", "binders": {"B1": {"name": "wild-type mouse IL-18 (mature form) (ligand)", "chain": "NFGRLHCTTAVIRNINDQVLFVDKRQPVFEDMTDIDQSASEPQTRLIIYMYKDSEVRGLAVTLSVKDSKMSTLSCKNKIISFEEMDPPENIDDIQSDLIFFQKRVPGHNKMEFESSLYEGHFLACQKEDDAFKLILKKKDENGDKSVMFTLTNLHQS", "notes": "recombinant from E. coli with C-terminal hexahistidine tag in SPR; also called mIL-18 WT; WT mIL-18"}, "B2": {"name": "mE8 (ligand)", "chain": "B1 chain with M50V, K52T, S54G, E55R, V56R, L59K, R104K, N109D", "notes": "recombinant with C-terminal hexahistidine tag in SPR"}, "B3": {"name": "mA7 (ligand)", "chain": "B1 chain with N1Y, M50A, K52G, S54N, E55R, L59K", "notes": "as for B2"}, "B4": {"name": "6-29 (ligand)", "chain": "YFGKLESKLSVIRNLNDQVLFIDQGNRPLFEDMTDSDCRDNAPRTIFIISKYSDSRARGLAVTISVKCEKISTLSCENKIISFKEMNPPDNIKDTKSDIIFFQRNVPGHGRKMQFESSSYEGYFLACEKERDLFKLILKKEDELGDRSIMFTVQNED", "notes": "recombinant with C-terminal hexahistidine tag in SPR and cell assays; also called h6-29; version 2.0 human DR-IL-18 variant"}, "B5": {"name": "hCS4 (ligand)", "chain": "B4 chain with Y1R, K51T, S53R, R56Q, A57P, L60K, G110K, R111Y", "notes": "recombinant with C-terminal hexahistidine tag in SPR and cell assays"}}, "key": {"[1]": {"target": "T1, mouse IL-18BP (amino acids 31-194) (mouse, UniProt Q9Z0M9 29-193, biotinylated on the AviTag (BirA ligase))", "T1 construct": "Secreted decoy receptor; made in Expi293 cells (H7 signal peptide); the stated range is the same as for the human protein; also called mIL-18BP", "T1 sequence": "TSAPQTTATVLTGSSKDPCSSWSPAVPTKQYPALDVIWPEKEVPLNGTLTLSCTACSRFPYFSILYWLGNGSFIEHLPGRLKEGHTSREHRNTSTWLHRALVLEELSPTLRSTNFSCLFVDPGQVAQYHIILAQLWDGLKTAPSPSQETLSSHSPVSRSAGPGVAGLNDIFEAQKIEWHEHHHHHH", "experiment": "on-yeast isotherms; KD IL-18BP / KD IL-18Rα"}, "[2]": {"target": "T1, mouse IL-18BP (amino acids 31-194)", "experiment": "SPR; KD BP / KD Ra normalized to WT IL-18"}, "[3]": {"target": "T1, mouse IL-18BP (amino acids 31-194)", "experiment": "SPR; KD IL-18BP / KD IL-18Rα", "experimental": "(§1) By contrast, very little binding is observed with the same variants and mIL-18BP (right). (FIG. 11B) Representative surface plasmon resonance sensorgrams between immobilized biotinylated mIL-18BP and the murine DR-IL-18 variants.\n(§2) Experiments were conducted using a Biacore™ T100 (Protein analysis interaction system) and carried out at 25° C. Biotinylated IL-18Rα or TL-18BP were immobilized onto a Biacore™ biotin capture chip (Series S CAP sensor chip, GE Healthcare) to yield an Rmax of ˜50 RU (IL-18Rα) or ˜10 RU (IL-18BP). Measurements were made with serial dilutions of the IL-18 variants in HEPES buffered Saline-P+ buffer (10 mM HEPES pH 7.4, 150 mM NaCl, 0.005% surfactant P20). The surface was regenerated by three 60-see injections of regeneration buffer (3/4 (v/v) 8M guanidine hydrochloride with 1/4 (v/v) 1M sodium hydroxide). Experiments were performed in multiple channels simultaneously for increased observations. All data were analyzed with the Biacore™ T100 evaluation software version 2.0 with a 1:1 Langmuir binding model."}, "[4]": {"target": "T2, mouse IL-18Rα ectodomain (amino acids 19-329) (mouse, UniProt Q61098 19-329, biotinylated on the AviTag (BirA ligase))", "T2 construct": "range 19-329; Secreted from Expi293 cells (H7 signal peptide); also called mIL-18Rα; Ra", "T2 sequence": "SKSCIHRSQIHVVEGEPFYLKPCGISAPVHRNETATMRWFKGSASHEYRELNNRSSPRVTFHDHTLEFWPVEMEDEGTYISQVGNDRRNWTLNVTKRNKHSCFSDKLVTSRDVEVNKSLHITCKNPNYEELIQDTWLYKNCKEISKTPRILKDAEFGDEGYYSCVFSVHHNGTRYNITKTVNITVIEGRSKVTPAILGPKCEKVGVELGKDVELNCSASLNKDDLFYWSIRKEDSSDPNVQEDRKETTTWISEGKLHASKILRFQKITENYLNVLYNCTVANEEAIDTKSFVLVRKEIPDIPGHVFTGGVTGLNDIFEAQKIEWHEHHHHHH", "experiment": "flow cytometry, mIL-18Rα titrated on yeast-displayed murine IL-18 variant (binding isotherm, %Max)"}, "[5]": {"target": "T1, mouse IL-18BP (amino acids 31-194)", "experiment": "SPR; KD IL-18BP / KD IL-18Rα (30 µM used for NBD)", "experimental": "as §1, §2"}, "[6]": {"target": "T1, mouse IL-18BP (amino acids 31-194)", "experiment": "on-yeast isotherms; KD IL-18BP / KD IL-18Rα (10 µM used for NBD)"}, "[7]": {"target": "T1, mouse IL-18BP (amino acids 31-194)", "experiment": "SPR; KD BP / KD Ra normalized to WT IL-18; upper end tied to mA7 by Table 9"}, "[8]": {"target": "T1, mouse IL-18BP (amino acids 31-194)", "experiment": "SPR; KD IL-18BP / KD IL-18Rα; SPR; ratio of two KDs", "experimental": "as §1, §2"}, "[9]": {"target": "T1, mouse IL-18BP (amino acids 31-194)", "experiment": "on-yeast isotherms; KD IL-18BP / KD IL-18Rα (10 µM used for NBD); on-yeast isotherms; 10 µM put in for NBD"}, "[10]": {"target": "T3, human IL-18BP (amino acids 31-194) (human, UniProt O95998 31-194, biotinylated on the AviTag (BirA ligase) where immobilized or used for staining)", "T3 construct": "Secreted decoy receptor; made in insect cells (gp67 signal peptide); also called hIL-18BP", "T3 sequence": "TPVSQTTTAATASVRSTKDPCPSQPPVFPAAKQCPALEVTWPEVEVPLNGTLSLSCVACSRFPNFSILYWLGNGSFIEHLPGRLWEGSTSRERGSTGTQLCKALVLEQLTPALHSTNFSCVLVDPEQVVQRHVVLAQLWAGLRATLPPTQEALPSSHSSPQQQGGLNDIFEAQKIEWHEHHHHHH", "experiment": "SPR; KD BP / KD Ra normalized to WT IL-18"}, "[11]": {"target": "T3, human IL-18BP (amino acids 31-194)", "experiment": "on-yeast isotherms; KD IL-18BP / KD IL-18Rα (20 µM used for NBD)"}, "[12]": {"target": "T3, human IL-18BP (amino acids 31-194)", "experiment": "on-yeast isotherms; BP/Rα KD ratio normalized to WT", "experimental": "(§3) Individual colonies of IL-18 yeast were grown overnight at 30° C. in SDCAA liquid media and induced in SGCAA liquid media for 1 day at 20° C. IL-18 display levels on yeast were verified by flow cytometry using an anti-cMyc tag antibody (anti-myc-PE; Cell Signaling Technologies). Receptor staining with biotinylated IL-18Rα (with or without IL-18Rβ) or biotinylated IL-18BP was performed in PBS supplemented with 0.5% BSA and 2 mM EDTA (PBE) on ice. All analysis was performed on a Sony SA3800 flow cytometer.\n(§4) To additionally characterize the receptor binding activities of the DR-IL-18 variants, the cytokines were expressed recombinantly and surface plasmon resonance for IL-18Rα and IL-18BP was performed (see FIG. 5B for representative traces)."}, "[13]": {"target": "T4, IL-18 receptor (IL-18R) on HEK-Blue IL-18 reporter cells (UniProt Q13478 19-541; O95256 20-599, limits assumed)", "T4 sequence (looked up) 1": "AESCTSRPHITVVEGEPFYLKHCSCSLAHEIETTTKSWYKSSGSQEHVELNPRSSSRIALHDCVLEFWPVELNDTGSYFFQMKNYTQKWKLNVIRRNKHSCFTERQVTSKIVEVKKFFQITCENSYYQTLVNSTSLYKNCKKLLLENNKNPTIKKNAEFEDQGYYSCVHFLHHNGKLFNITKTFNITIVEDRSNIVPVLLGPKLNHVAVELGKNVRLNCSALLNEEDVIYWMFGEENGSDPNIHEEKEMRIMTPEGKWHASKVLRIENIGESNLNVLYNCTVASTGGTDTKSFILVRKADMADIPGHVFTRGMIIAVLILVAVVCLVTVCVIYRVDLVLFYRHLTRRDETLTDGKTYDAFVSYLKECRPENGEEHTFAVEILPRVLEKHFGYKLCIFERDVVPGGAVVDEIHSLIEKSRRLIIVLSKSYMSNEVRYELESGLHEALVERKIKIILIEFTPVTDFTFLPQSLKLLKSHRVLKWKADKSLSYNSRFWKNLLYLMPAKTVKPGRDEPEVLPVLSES", "T4 sequence (looked up) 2": "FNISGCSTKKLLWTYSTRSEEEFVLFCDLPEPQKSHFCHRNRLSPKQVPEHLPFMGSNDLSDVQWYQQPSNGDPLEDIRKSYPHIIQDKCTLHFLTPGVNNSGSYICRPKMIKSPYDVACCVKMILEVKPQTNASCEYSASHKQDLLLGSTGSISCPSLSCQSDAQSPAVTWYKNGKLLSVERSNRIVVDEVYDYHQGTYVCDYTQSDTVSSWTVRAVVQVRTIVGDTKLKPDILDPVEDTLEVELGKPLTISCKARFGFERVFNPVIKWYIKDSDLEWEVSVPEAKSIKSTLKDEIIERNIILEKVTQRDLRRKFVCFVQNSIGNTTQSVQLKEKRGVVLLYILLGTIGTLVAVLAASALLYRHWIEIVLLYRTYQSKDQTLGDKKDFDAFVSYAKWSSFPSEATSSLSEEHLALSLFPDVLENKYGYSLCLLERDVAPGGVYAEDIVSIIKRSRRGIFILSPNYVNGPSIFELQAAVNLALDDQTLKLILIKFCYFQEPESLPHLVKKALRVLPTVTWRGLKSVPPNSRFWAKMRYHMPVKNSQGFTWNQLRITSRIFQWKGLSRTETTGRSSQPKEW", "experiment": "cell-based or functional assay"}, "[14]": {"target": "T3, human IL-18BP (amino acids 31-194)", "experiment": "SPR; KD IL-18BP / KD IL-18Rα; SPR; ratio of two KDs", "experimental": "as §2, §4"}, "[15]": {"target": "T3, human IL-18BP (amino acids 31-194)", "experiment": "on-yeast isotherms; KD IL-18BP / KD IL-18Rα (20 µM used for NBD); on-yeast isotherms; 20 µM put in for NBD", "experimental": "as §3, §4"}}, "note": "Where a chain is given by its changes, count along the chain named.", "data": [{"binder": "B1", "values": [{"measurement": "KD ratio: IL-18BP/IL-18Rα", "setting": "[1]", "value": 0.188}, {"measurement": "IL-18 BP:Ra Dissociation Constant Ratio", "setting": "[2]", "value": 1}, {"measurement": "KD ratio: IL-18BP/IL-18Rα", "setting": "[3]", "value": 0.00183}, {"measurement": "EC50 (read off the curve)", "setting": "[4]", "value": "~10", "unit": "nM"}]}, {"binder": "B2", "values": [{"measurement": "KD ratio: IL-18BP/IL-18Rα", "setting": "[5]", "value": "> 17800"}, {"measurement": "KD ratio: IL-18BP/IL-18Rα", "setting": "[6]", "value": "> 238"}]}, {"binder": "B3", "values": [{"measurement": "IL-18 BP:Ra Dissociation Constant Ratio", "setting": "[7]", "value": "3.5e+07"}, {"measurement": "KD ratio: IL-18BP/IL-18Rα", "setting": "[8]", "value": 63200}, {"measurement": "KD ratio: IL-18BP/IL-18Rα", "setting": "[9]", "value": "> 741"}, {"measurement": "EC50 (read off the curve)", "setting": "[4]", "value": "~10", "unit": "nM"}]}, {"binder": "B4", "values": [{"measurement": "IL-18 BP:Ra Dissociation Constant Ratio", "setting": "[10]", "value": "> 7.59e+06"}, {"measurement": "KD ratio: IL-18BP/IL-18Rα", "setting": "[11]", "value": 540}, {"measurement": "Dissociation Constant Ratio normalized to WT IL-18", "setting": "[12]", "value": "> 8000"}, {"measurement": "EC50 (read off the curve); HEK-Blue IL-18 SEAP reporter, OD 655 nM", "setting": "[13]", "value": "~900", "unit": "pM"}]}, {"binder": "B5", "values": [{"measurement": "KD ratio: IL-18BP/IL-18Rα", "setting": "[14]", "value": 41.8}, {"measurement": "IL-18 BP:Ra Dissociation Constant Ratio", "setting": "[10]", "value": 32200}, {"measurement": "KD ratio: IL-18BP/IL-18Rα", "setting": "[15]", "value": "> 125"}]}]}
